Laboratory results: paper PMC2864300, “Regulation of NOXO1 Activity through Reversible Interactions with p22^phox and NOXA1” (PLoS ONE, 2010)
Each block holds one binder with its values, some of them ahead of it.

B2: human NOXO1 SH3AB–E (tandem SH3 domains plus the C-terminal portion of NOXO1) (domain or fragment)
chain: LEAQSLRCLQPFCTQDTRDRPFQAQAQESLDVLLRHPSGWWLVENEDRQTAWFPAPYLEEAAPGQGREGGPSLGSSGPQFCASRAYESSRADELSVPAGARVRVLETSDRGWWLCRYGDRAGLLPAVLLRPEGLGALLSGTGFRGGDDPAGEARGFPEPSQATAPPPTVPTRPSPGAIQSRCCTVTRRALERRPRRQGRPRGCVDSVPHPTTEQ
B3: mouse NOXA1 SH3 domain (domain or fragment, UniProt Q8CJ00 369-428, looked up)
chain: PVLYQVVAQYNYRAQRPEDLDFHQGDTVDVLCEVDEAWLEGHRDGCVGIFPKCFVVPAGA
notes: mouse NOXA1, carboxy-terminal SH3 domain; source: E. coli BL21 STAR, purified (glutathione Sepharose, PreScission cleavage, Superdex 75)
B6: human NOXA1 SH3 domain (domain or fragment, UniProt Q86UR1 399-458, looked up)
chain: PVLYQVVAQHSYSAQGPEDLGFRQGDTVDVLCEVDQAWLEGHCDGRIGIFPKCFVVPAGP
notes: human NOXA1, carboxy-terminal SH3 domain; source: E. coli BL21 STAR, purified (glutathione Sepharose, PreScission cleavage, Superdex 75)

Experiments:
Assay in all cases: ITC; MicroCal VP-ITC, 18°C; 150 mM NaCl, 1 mM DTT, 50 mM HEPES pH 7.4; typically 20–40 µM protein in the cell, 200–300 µM ligand injected; single-site binding model; averaged over three to five experiments
Conditions in all cases: both partners purified
[1] = target: B6
[2] = target: T1, human p22^phox cytoplasmic domain (p22^phoxC) (human)
T1 construct: human p22phox, cytoplasmic domain; source: E. coli BL21 STAR, purified (glutathione Sepharose, PreScission cleavage, Superdex 75)
T1 sequence (P13498 whole entry, looked up): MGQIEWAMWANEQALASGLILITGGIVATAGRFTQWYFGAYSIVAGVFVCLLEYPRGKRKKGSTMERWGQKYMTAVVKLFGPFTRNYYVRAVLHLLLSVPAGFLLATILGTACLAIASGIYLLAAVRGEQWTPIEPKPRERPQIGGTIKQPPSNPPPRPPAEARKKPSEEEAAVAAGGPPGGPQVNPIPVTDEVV

[3] = target: T2, mouse NOXO1 SH3AB–E (tandem SH3 domains plus the C-terminal portion of NOXO1) (mouse, UniProt Q8VCM2 160-349)
T2 construct: mouse NOXO1, tandem SH3 domains plus the C-terminal portion; source: E. coli BL21 STAR, purified (glutathione Sepharose, PreScission cleavage, Superdex 75)
T2 sequence (looked up): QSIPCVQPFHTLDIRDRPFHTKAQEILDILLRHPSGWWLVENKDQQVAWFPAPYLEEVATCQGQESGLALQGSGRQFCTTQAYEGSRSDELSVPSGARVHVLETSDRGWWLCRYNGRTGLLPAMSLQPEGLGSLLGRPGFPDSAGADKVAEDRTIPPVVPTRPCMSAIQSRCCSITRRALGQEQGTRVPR

[4] = target: T2, mouse NOXO1 SH3AB–E (tandem SH3 domains …); remark: listed apart in the source
[5] = target: B3
[6] = target: B2

- Kd [1]: > 70 µM
B1: shorter version of peptideA, which only contains the proline rich region (peptide)
peptide: TAPPPTVPTRPS
notes: also called PeptideA-short; short proline-rich motif-containing version of peptideA; source: synthetic peptide

- Kd [5]: 5.9 µM
- dH [5]: -7.6 ± 0.3 kcal/mol
- Kd [1]: 5.8 µM
- dH [1]: -12.6 ± 0.6 kcal/mol
B5: peptideA (amino acids 319–347 of human NOXO1) (peptide)
peptide: TAPPPTVPTRPSPGAIQSRCCTVTRRALE
notes: also called long version of peptideA; source: synthetic peptide

Continued, binder first:

Binder: B2
- Kd [2]: 17.5 µM
- Kd [1]: 7.2 µM

Binder: B3
- Kd [3]: 2.2 µM
- dH [3]: -10.1 ± 0.8 kcal/mol

B4: mouse p22^phox cytoplasmic domain (p22^phoxC) (domain or fragment, UniProt Q61462 127-192, looked up)
chain: RGEQWTPIEPKPKERPQVGGTIKQPPTNPPPRPPAEVRKKPSEGEEEAASAGGPQVNPMPVTDEVV
notes: mouse p22phox, cytoplasmic domain; also called murine p22^phox; source: E. coli BL21 STAR, purified (glutathione Sepharose, PreScission cleavage, Superdex 75)
- Kd [4]: 0.78 µM
- dH [4]: -7.1 ± 0.05 kcal/mol

Binder: B6
- dH [6]: -8.6 ± 0.7 kcal/mol
